Results on one substance are retold here after US20110293620A1.

Assay [1] deals with recombinant PR1/HLA-A*0201 monomer (human). The assay can be described thus: SPR, Biacore; antibody captured on anti-mouse antibody surface, peptide/HLA-A2 as analyte. For orientation: SPR reads the build-up and loss of mass on a sensor chip optically.
The target is the same in assay [2]. Nature of the assay: SPR (BIAcore 3000), BB7.2 captured on an anti-mouse antibody surface, PR1/HLA-A2 monomer (HLA-A2/beta2m/peptide) as analyte in a concentration series, 25 C, first-order kinetic fit; the box below the panel and the text round it to 162 nM.

What is called Kd is the free concentration of one partner at which half of the binding sites on the other are occupied at equilibrium, for simple one-to-one binding. As for “BB7.2 murine monoclonal antibody (HLA-A*0201 allele-specific mouse IgG2a)”, the Kd in assay [1] and in assay [2] was 162 nM throughout.
